The source of these data is publication PMC4776140, “Stimulation of translation by human Unr requires cold shock domains 2 and 4, and correlates with poly(A) binding protein interaction” (Scientific Reports, 2016).

This assay deals with T1, GST-tagged PABP1 (UniProt P11940 1-636).
T1 construct: also called GST-PABP1; source: E. coli BL21(DE3) from pGEX2T, purified (glutathione Sepharose 4B)
Put plainly: pull-down; as the GST pull-down, with 0.1 mg/ml RNase A added to the TnT reaction, 30 min at 30 °C before pull down; value relative to no RNase A. Particulars: one partner purified.

B1: wild type Unr, in vitro translated, 35S-labelled (natural protein, human, UniProt O75534-2 1-767, looked up)
chain: MSFDPNLLHNNGHNGYPNGTSAALRETGVIEKLLTSYGFIQCSERQARLFFHCSQYNGNLQDLKVGDDVEFEVSSDRRTGKPIAVKLVKIKQEILPEERMNGQEVFYLTYTPEDVEGNVQLETGDKINFVIDNNKHTGAVSARNIMLLKKKQARCQGVVCAMKEAFGFIERGDVVKEIFFHYSEFKGDLETLQPGDDVEFTIKDRNGKEVATDVRLLPQGTVIFEDISIEHFEGTVTKVIPKVPSKNQNDPLPGRIKVDFVIPKELPFGDKDTKSKVTLLEGDHVRFNISTDRRDKLERATNIEVLSNTFQFTNEAREMGVIAAMRDGFGFIKCVDRDVRMFFHFSEILDGNQLHIADEVEFTVVPDMLSAQRNHAIRIKKLPKGTVSFHSHSDHRFLGTVEKEATFSNPKTTSPNKGKEKEAEDGIIAYDDCGVKLTIAFQAKDVEGSTSPQIGDKVEFSISDKQRPGQQVATCVRLLGRNSNSKRLLGYVATLKDNFGFIETANHDKEIFFHYSEFSGDVDSLELGDMVEYSLSKGKGNKVSAEKVNKTHSVNGITEEADPTIYSGKVIRPLRSVDPTQTEYQGMIEIVEEGDMKGEVYPFGIVGMANKGDCLQKGESVKFQLCVLGQNAQTMAYNITPLRRATVECVKDQFGFINYEVGDSKKLFFHVKEVQDGIELQAGDEVEFSVILNQRTGKCSACNVWRVCEGPKAVAAPRPDRLVNRLKNITLDDASAPRLMVLRQPRGPDNSMGFGAERKIRQAGVID
modifications: radiolabelled with [35S] methionine
notes: numbers count on: Unr protein isoform 2; Same pET21d plasmids as for the histidine-tagged recombinant Unr; also called wt Unr; CSDE1; source: in vitro transcribed/translated from pET21d plasmid (TnT Quick Coupled System, Promega), not purified
For the molecule B1, the “percent pull-down with RNase A relative to no RNase A” value worked out at 79%.
